In article PMC8488672 (Proceedings of the National Academy of Sciences of the …, 2021):

T1: full-length CD248 transiently expressed on cells (UniProt Q9HCU0 18-757)
T1 sequence: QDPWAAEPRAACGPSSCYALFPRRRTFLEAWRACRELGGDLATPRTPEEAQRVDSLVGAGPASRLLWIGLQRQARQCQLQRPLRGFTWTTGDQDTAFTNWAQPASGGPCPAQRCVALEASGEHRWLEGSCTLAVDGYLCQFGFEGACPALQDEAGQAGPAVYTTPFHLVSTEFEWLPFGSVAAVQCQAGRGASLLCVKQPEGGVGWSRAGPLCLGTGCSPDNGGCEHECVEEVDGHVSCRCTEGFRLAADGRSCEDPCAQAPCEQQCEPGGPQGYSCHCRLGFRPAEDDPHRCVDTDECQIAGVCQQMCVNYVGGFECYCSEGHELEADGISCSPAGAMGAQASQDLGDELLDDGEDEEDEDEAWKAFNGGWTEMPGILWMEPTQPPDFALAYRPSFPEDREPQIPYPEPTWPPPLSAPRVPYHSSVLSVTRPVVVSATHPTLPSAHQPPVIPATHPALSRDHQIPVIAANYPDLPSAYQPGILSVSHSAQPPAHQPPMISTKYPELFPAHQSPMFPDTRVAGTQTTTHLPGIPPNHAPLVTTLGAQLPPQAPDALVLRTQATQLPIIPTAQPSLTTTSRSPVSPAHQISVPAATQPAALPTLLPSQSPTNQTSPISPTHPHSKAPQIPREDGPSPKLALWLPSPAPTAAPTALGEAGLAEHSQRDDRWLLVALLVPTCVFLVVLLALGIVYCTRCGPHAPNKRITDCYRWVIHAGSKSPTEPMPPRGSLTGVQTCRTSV

T2: gD-GPI CD248 transiently expressed on cells (UniProt Q9HCU0 18-687, glycosylphosphatidylinositol (GPI) lipid anchor)
T2 sequence: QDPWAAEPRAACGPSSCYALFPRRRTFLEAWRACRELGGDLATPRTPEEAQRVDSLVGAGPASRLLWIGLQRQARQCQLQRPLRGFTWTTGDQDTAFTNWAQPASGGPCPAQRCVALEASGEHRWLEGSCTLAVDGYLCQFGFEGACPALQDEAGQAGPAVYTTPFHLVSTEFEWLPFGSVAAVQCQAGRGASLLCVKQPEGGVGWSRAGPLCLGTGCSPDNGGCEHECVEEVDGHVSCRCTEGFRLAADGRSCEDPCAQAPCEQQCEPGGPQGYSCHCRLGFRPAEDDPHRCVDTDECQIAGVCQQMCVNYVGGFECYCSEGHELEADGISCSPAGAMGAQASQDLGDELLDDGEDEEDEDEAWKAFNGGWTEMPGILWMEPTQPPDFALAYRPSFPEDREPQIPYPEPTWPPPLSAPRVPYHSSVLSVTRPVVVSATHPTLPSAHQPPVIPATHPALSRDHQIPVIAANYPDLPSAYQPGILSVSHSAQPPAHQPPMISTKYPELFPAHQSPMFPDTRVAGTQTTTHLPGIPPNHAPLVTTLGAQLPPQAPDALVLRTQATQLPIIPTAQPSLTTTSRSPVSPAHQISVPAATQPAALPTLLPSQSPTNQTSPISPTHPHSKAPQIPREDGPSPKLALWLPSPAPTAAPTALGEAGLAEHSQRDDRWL

B1: full-length LRRC15 displayed on rEVs (receptor)
chain: YHGCPSECTCSRASQVECTGARIVAVPTPLPWNAMSLQILNTHITELNESPFLNISALIALRIEKNELSRITPGAFRNLGSLRYLSLANNKLQVLPIGLFQGLDSLESLLLSSNQLLQIQPAHFSQCSNLKELQLHGNHLEYIPDGAFDHLVGLTKLNLGKNSLTHISPRVFQHLGNLQVLRLYENRLTDIPMGTFDGLVNLQELALQQNQIGLLSPGLFHNNHNLQRLYLSNNHISQLPPSVFMQLPQLNRLTLFGNSLKELSPGIFGPMPNLRELWLYDNHISSLPDNVFSNLRQLQVLILSRNQISFISPGAFNGLTELRELSLHTNALQDLDGNVFRMLANLQNISLQNNRLRQLPGNIFANVNGLMAIQLQNNQLENLPLGIFDHLGKLCELRLYDNPWRCDSDILPLRNWLLLNQPRLGTDTVPVCFSPANVRGQSLIIINVNVAVPSVHVPEVPSYPETPWYPDTPSYPDTTSVSSTTELTSPVEDYTDLTTIQVTDDRSVWGMTQAQSGLAIAAIVIGIVALACSLAACVGCCCCKKRSQAVLMQMKAPNEC
B2: gD-GPI–tagged LRRC15 ectodomain displayed on rEVs (domain or fragment)
chain: YHGCPSECTCSRASQVECTGARIVAVPTPLPWNAMSLQILNTHITELNESPFLNISALIALRIEKNELSRITPGAFRNLGSLRYLSLANNKLQVLPIGLFQGLDSLESLLLSSNQLLQIQPAHFSQCSNLKELQLHGNHLEYIPDGAFDHLVGLTKLNLGKNSLTHISPRVFQHLGNLQVLRLYENRLTDIPMGTFDGLVNLQELALQQNQIGLLSPGLFHNNHNLQRLYLSNNHISQLPPSVFMQLPQLNRLTLFGNSLKELSPGIFGPMPNLRELWLYDNHISSLPDNVFSNLRQLQVLILSRNQISFISPGAFNGLTELRELSLHTNALQDLDGNVFRMLANLQNISLQNNRLRQLPGNIFANVNGLMAIQLQNNQLENLPLGIFDHLGKLCELRLYDNPWRCDSDILPLRNWLLLNQPRLGTDTVPVCFSPANVRGQSLIIINVNVAVPSVHVPEVPSYPETPWYPDTPSYPDTTSVSSTTELTSPVEDYTDLTTIQVTDDRSVWGMTQAQSG
modifications: glycosylphosphatidylinositol (GPI) lipid anchor

Assays:
Experiment in all cases: fluorescence microscopy of rEV binding to transfected cells
[1] = biological target: gD-GPI CD248 transiently expressed on cells (UniProt Q9HCU0)
[2] = biological target: T1, full-length CD248 transiently expressed …
[3] = biological target: T2, gD-GPI CD248 transiently expressed on …

Row | Molecule | fold binding over cells transfected with an empty vector control [1] | fold binding over cells transfected with an empty vector control [2] | fold binding over cells transfected with an empty vector control [3]
1 | gD-GPI–tagged LRRC15 ectodomain displayed on rEVs (from UniProt Q8TF66 22-538) (domain or fragment) | > 10 fold |  | 
2 | B1 |  | > 10 fold | > 10 fold
3 | B2 |  | > 10 fold | 
